Assay results published in paper PMC7641318.

System: T1, hADAR2-R2D (Fig. 2C, Fig. S4, Table S4) E488Q (human), P78563-2
T1 sequence: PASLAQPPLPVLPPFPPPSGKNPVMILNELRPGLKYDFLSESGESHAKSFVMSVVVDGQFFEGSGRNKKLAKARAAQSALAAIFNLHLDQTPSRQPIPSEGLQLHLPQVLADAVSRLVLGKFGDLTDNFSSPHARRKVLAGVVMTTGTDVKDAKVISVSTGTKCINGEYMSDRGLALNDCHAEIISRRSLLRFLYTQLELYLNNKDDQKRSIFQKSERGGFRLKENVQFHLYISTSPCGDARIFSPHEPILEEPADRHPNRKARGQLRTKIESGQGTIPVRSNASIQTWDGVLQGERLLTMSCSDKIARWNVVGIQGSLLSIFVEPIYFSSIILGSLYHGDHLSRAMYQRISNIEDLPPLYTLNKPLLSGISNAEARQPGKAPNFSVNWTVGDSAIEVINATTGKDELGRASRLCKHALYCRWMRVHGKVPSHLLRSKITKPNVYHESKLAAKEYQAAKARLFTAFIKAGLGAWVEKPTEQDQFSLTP
Test: EMSA
Details: EMSA: 20 mM Tris-HCl pH 7.0, 3.5% glycerol, 0.5% DTT, 60 mM KCl, 20 mM NaCl, 0.1 mM BME, 1.5 mM EDTA, 0.003% NP-40, 160 U/ml RNasin, 100 ug/ml BSA, 1 ug/ml …

[1] = N = 8-azanebularine at top position 13

Sequence | Kd [1] [nM] | Kd (N = 8-azanebularine at top position 18) [nM]
GCUCGCGAUGCUNGAGGGCUCUG / CAGAGCCCCCCAGCAUCGCGAGC [hGLI1-23 8AN] | 2.67 | –
GCUCGCGAUGCUNGAGGGCUCUGAUAGC / GCUAUCAGAGCCCCCCAGCAUCGCGAGC [hGLI1-28-3' 8AN (3' extended)] | 1.79 | –
GCAUAGCUCGCGAUGCUNGAGGGCUCUG / CAGAGCCCCCCAGCAUCGCGAGCUAUGC [hGLI1-28-5' 8AN (5' extended)] | – | 1.31
